The results in this text go back to patent US20090175790A1.

In this assay the target is WT HCN1 (mHCN1) (mouse (mHCN1)) (UniProt O88704). The assay can be described thus: cell-based or functional assay.
UniProt O88704, sequence (O88704 whole entry): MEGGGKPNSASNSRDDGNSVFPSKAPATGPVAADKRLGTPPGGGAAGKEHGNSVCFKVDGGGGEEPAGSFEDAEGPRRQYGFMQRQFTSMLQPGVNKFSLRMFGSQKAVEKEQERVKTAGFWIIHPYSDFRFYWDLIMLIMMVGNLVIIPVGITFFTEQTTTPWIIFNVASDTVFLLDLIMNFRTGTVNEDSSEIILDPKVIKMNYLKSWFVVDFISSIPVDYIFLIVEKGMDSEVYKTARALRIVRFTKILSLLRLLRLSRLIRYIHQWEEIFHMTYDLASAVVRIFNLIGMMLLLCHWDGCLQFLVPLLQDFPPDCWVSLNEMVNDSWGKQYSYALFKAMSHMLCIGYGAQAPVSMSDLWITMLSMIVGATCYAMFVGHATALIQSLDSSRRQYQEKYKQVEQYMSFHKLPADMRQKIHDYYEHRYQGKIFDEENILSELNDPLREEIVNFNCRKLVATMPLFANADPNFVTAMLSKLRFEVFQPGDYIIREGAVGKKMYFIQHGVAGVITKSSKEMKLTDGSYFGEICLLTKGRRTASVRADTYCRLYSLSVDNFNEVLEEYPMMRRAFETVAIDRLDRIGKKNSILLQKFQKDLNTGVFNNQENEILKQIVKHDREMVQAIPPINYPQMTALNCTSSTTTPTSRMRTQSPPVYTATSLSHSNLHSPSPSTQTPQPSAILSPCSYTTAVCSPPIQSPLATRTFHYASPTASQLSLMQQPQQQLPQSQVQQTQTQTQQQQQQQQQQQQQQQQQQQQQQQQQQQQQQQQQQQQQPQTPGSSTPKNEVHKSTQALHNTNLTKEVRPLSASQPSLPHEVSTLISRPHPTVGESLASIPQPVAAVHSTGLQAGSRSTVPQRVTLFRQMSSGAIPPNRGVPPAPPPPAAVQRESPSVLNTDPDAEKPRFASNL

Consider “HCN1-AAA (mHCN1 with the triple mutation GYG365-367AAA) (from UniProt O88704 1-910)”, for which the current reduction, WTHCN1:HCN1-AAA cRNA ratio 1:1 (total 25 ng), Xenopus oocytes (% current reduction) was found to be 91.7; the current reduction, WTHCN1:HCN1-AAA cRNA ratio 1:2 (total 25 ng), Xenopus oocytes (% current reduction) worked out at 97.9; the current reduction, WTHCN1:HCN1-AAA cRNA ratio 2:1 (total 25 ng), Xenopus oocytes (% current reduction) came to 78.7; the current reduction, WTHCN1:HCN1-AAA cRNA ratio 3:1 (total 25 ng), Xenopus oocytes (% current reduction) was found to be 68.3. Also, the current reduction, WTHCN1:HCN1-AAA cRNA ratio 4:1 (total 25 ng), Xenopus oocytes (% current reduction) came out at 55.2; the whole-cell current at -140 mV in Xenopus oocytes, co-injection of 50 nL WT HCN1 and 50 nL HCN1-AAA cRNA against WT HCN1 alone (current reduction) was found to be 85.2%.
